{"source": "patent US20220356213A1", "about": "(MAX PLANCK GESELLSCHAFT ZUR F RDERUNG DER WISSENSCHAFTEN E V, published 2022)", "binders": {"B1": {"name": "SspB_Nano-SctQ (other)", "chain": "MSLRSGAGSSPKRPKLLREYYDWLVDNSFTPYLVVDATYLGVNVPVEYVKDGQIVLNLSASATGNLQLTNDFIQFNARFKGVSRELYIPMGAALAIYARENGDGVMFEPEEIYDELNIGGAGELGGSGGSGGSLLTLPQAKLSELSLRQRLSHYRQNYLWEEGKLELTVSEPPSSLNCILQLQWKGTHFTLYCFGDDLANWLTPDLLGAPFSTLPKELQLALLERQTVFLPKLVCNDIATASLSVTQPLLSLRLSRDNAHISFWLTSAEALFALLPARPNSERIPLPILLSLRWHKVYLTLDEVDSLRLGDVLLAPEGSGPNSPVLAYVGENPWGYFQLQSNKLEFIGMSHESDELNPKPLTDLNQLPVQVSFEVGRQILDWHTLTSLEPGSLIDLTTPVDGEVRLLANGRLLGHGRLVEIQGRLGVRIERLTEVTIS"}}, "target": "T1, TMH-FLAG-(L1)-iLID", "T1 chain": "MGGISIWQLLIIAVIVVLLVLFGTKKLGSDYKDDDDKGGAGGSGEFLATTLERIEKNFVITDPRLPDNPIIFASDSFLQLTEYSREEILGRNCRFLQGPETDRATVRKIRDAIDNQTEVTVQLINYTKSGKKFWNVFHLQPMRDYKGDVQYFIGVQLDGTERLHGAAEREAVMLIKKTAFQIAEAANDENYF", "assay": "cell-based or functional assay", "data": [{"binder": "B1", "values": [{"measurement": "L/D ratio of export of heterologous cargo YopE1-53-NanoLuc-FLAG, LITESEC-supp2", "result": "< 0.02"}, {"measurement": "L/D ratio of export of heterologous cargo, LITESEC-supp2", "result": 0.01}, {"measurement": "export of heterologous cargo, LITESEC-supp2, dark", "result": 205, "unit": "% WT secretion"}, {"measurement": "export of heterologous cargo, LITESEC-supp2, light", "result": 2, "unit": "% WT secretion"}, {"measurement": "light/dark secretion ratio (L/D ratio), LITESEC-supp1, native T3SS substrates, in vitro secretion assay", "result": 0.28}, {"measurement": "light/dark secretion ratio (L/D ratio), LITESEC-supp2 (anchor from pACYC184), native T3SS substrates", "result": 0.26}]}]}
